Measured values taken from PMC7467671.

Tests used:
Assay in all cases: potentiometry
[1] = biological target: Lys10 (position 10, TAVMLK-----); details: 298 K, 0.1 M NaClO4
[2] = biological target: Nterm1 (position 1, -----DEHGTA); details: 298 K, 0.1 M NaClO4
[3] = biological target: His3 (position 3, ---DEHGTAVM); details: 298 K, 0.1 M NaClO4
[4] = biological target: Glu2 (position 2, ----DEHGTAV); details: 298 K, 0.1 M NaClO4
[5] = biological target: Asp1 (position 1, -----DEHGTA); details: 298 K; 0.1 M NaClO4; none (4 mM HClO4, titrated with 0.1 M carbonate-free NaOH); metal-free peptide, largely unstructured
[6] = biological target: Glu9 (position 9, VMLKDEH----); details: 298 K; 0.1 M NaClO4; none (4 mM HClO4, titrated with 0.1 M carbonate-free NaOH); metal-free peptide, largely unstructured
[7] = biological target: Nterm1 (position 1, -----GTAVML); details: 298 K, 0.1 M NaClO4
[8] = biological target: His10 (position 10, MLKDEH-----); details: 298 K, 0.1 M NaClO4
[9] = biological target: Lys7 (position 7, …--); details: 298 K, 0.1 M NaClO4
[10] = biological target: Asp8 (position 8, AVMLKDEH---); details: 298 K; 0.1 M NaClO4; none (4 mM HClO4, titrated with 0.1 M carbonate-free NaOH); metal-free peptide, largely unstructured
[11] = biological target: Asp5 (position 5, -…); details: 298 K; 0.1 M NaClO4; none (4 mM HClO4, titrated with 0.1 M carbonate-free NaOH); metal-free peptide, largely unstructured
[12] = biological target: His7 (position 7, …--); details: 298 K, 0.1 M NaClO4
[13] = biological target: Glu6 (position 6, …-); details: 298 K; 0.1 M NaClO4; none (4 mM HClO4, titrated with 0.1 M carbonate-free NaOH); metal-free peptide, largely unstructured
[14] = biological target: Lys9 (position 9, LDEHAKG----); details: 298 K, 0.1 M NaClO4
[15] = biological target: Nterm1 (position 1, -----TMVLDE); details: 298 K, 0.1 M NaClO4
[16] = biological target: His2 (position 2, ----THMVLAK); details: 298 K, 0.1 M NaClO4
[17] = biological target: Glu9 (position 9, VLAKGED----); details: 298 K, 0.1 M NaClO4
[18] = biological target: Lys7 (position 7, HMVLAKGED--); details: 298 K, 0.1 M NaClO4
[19] = biological target: Asp10 (position 10, LAKGED-----); details: 298 K; 0.1 M NaClO4; none (4 mM HClO4, titrated with 0.1 M carbonate-free NaOH); metal-free peptide, largely unstructured
[20] = biological target: Nterm1 (position 1, -----THMVLA); details: 298 K, 0.1 M NaClO4
[21] = biological target: His3 (position 3, ---DEHGGGGD); details: 298 K, 0.1 M NaClO4
[22] = biological target: Asp8 (position 8, HGGGGDEH---); details: 298 K; 0.1 M NaClO4; none (4 mM HClO4, titrated with 0.1 M carbonate-free NaOH); metal-free peptide, largely unstructured
[23] = biological target: Asp1 (position 1, -----DEHGGG); details: 298 K; 0.1 M NaClO4; none (4 mM HClO4, titrated with 0.1 M carbonate-free NaOH); metal-free peptide, largely unstructured
[24] = biological target: Glu2 (position 2, ----DEHGGGG); details: 298 K; 0.1 M NaClO4; none (4 mM HClO4, titrated with 0.1 M carbonate-free NaOH); metal-free peptide, largely unstructured
[25] = biological target: Nterm1 (position 1, -----DEHGGG); details: 298 K, 0.1 M NaClO4
[26] = biological target: Glu9 (position 9, GGGGDEH----); details: 298 K; 0.1 M NaClO4; none (4 mM HClO4, titrated with 0.1 M carbonate-free NaOH); metal-free peptide, largely unstructured
[27] = biological target: His10 (position 10, GGGDEH-----); details: 298 K, 0.1 M NaClO4
[28] = none (4 mM HClO4, titrated with 0.1 M carbonate-free NaOH), metal-free peptide, largely unstructured
[29] = none (4 mM HClO4, titrated with NaOH), Cu(II)-bound, Cu(II):peptide 1:1.1, [Cu(II)]tot = 1 mM
[30] = none (4 mM HClO4, titrated with NaOH), Mn(II)-bound, Mn(II):peptide 1:1.1, [Mn(II)]tot = 0.5 mM

B1: DP1 decapeptide (DEHGTAVMLK) (synthetic construct (designed from amino-acid content of Deinococcus radiodurans cell-free extract)) (peptide)
chain: DEHGTAVMLK
- pKa [1, 28]: 9.62(3)
- pKa [1, 29]: 9.00
- pKa [1, 30]: 8.96
- pKa [2, 28]: 7.85
- pKa [2, 30]: 7.5
- pKa [3, 28]: 6.47
- pKa [3, 30]: 6.11
- pKa [4, 28]: 4.20
- pKa [4, 29]: 4.17
- pKa [5]: 3.06

B2: Term-DEH decapeptide (GTAVMLKDEH) (synthetic construct (Deinococcus radiodurans-inspired)) (peptide)
chain: GTAVMLKDEH
- pKa [6]: 4.31
- pKa [7, 28]: 8.16
- pKa [7, 29]: 5.34
- pKa [7, 30]: 7.79
- pKa [8, 28]: 7.02
- pKa [8, 30]: 7.08
- pKa [9, 28]: 10.82(1)
- pKa [9, 29]: 11.05
- pKa [10]: 3.46

B3: Mid-DEH decapeptide (TMVLDEHAKG) (synthetic construct (Deinococcus radiodurans-inspired)) (peptide)
chain: TMVLDEHAKG
- pKa [11]: 3.55
- pKa [12, 28]: 6.29
- pKa [12, 30]: 6.42
- pKa [13]: 4.06
- pKa [14, 28]: 10.52(1)
- pKa [14, 29]: 11.20
- pKa [14, 30]: 9.8
- pKa [15, 28]: 7.33
- pKa [15, 29]: 4.59
- pKa [15, 30]: 7.21

B4: DP2 decapeptide (THMVLAKGED) (synthetic construct (scrambled DP1; Deinococcus radiodurans-inspired)) (peptide)
chain: THMVLAKGED
- pKa [16, 28]: 5.91
- pKa [16, 30]: 5.40
- pKa [17, 28]: 4.70
- pKa [17, 29]: 4.91
- pKa [18, 28]: 9.86(1)
- pKa [18, 29]: 9.87
- pKa [18, 30]: 8.29
- pKa [19]: 3.89
- pKa [20, 28]: 7.01
- pKa [20, 30]: 6.59

B5: Bis-DEH decapeptide (DEHGGGGDEH) (synthetic construct (Deinococcus radiodurans-inspired)) (peptide)
chain: DEHGGGGDEH
- pKa [21, 28]: 6.67
- pKa [21, 30]: 7.25
- pKa [22]: 3.36
- pKa [23]: 2.67
- pKa [24]: 4.05
- pKa [25, 28]: 8.41
- pKa [25, 30]: 7.82
- pKa [26]: 4.69
- pKa [27, 28]: 7.41
- pKa [27, 29]: 7.73
- pKa [27, 30]: 6.37
